Two molecules from article PMC9166773, “Latrophilin-2 is a novel receptor of LRG1 that rescues vascular and neurological abnormalities and restores diabetic erectile function” (Experimental & Molecular Medicine, 2022) can be followed below.

B2: Leucine-rich alpha-2-glycoprotein 1 (LRG1), recombinant tag-free human LRG1 (ligand, UniProt P02750 36-347, looked up)
chain: VTLSPKDCQVFRSDHGSSISCQPPAEIPGYLPADTVHLAVEFFNLTHLPANLLQGASKLQELHLSSNGLESLSPEFLRPVPQLRVLDLTRNALTGLPPGLFQASATLDTLVLKENQLEVLEVSWLHGLKALGHLDLSGNRLRKLPPGLLANFTLLRTLDLGENQLETLPPDLLRGPLQLERLHLEGNKLQVLGKDLLLPQPDLRYLFLNGNKLARVAAGAFQGLRQLDMLDLSNNSLASVPEGLWASLGQPNWDMRDGFDISGNPWICDQNLSDLYRWLQAQKDKMFSQNDTRCAGPEAVKGQTLLAVAKSQ
notes: human LRG1, residues V36-Q347; In the TriCEPS capture LRG1 was coupled to the TriCEPS reagent; Residues of the thrombin site may remain after cleavage; also called recombinant LRG1; soluble LRG1; not shown: Fc (human IgG), C-terminal, cleaved

Assay [1] addresses B2. The assay can be described thus: solid-phase binding assay; LRG1 and recombinant extracellular domains of LPHN2 (and Lec/Olf of LPHN1, LPHN3); who was immobilised and conditions not told in the text shown. As to conditions: both partners purified.
The target in assay [2] is T1, LPHN2 Lec-Olf domains (F26-P394) (UniProt O95490 26-394).
T1 construct: LPHN2 (ADGRL2) lectin and olfactomedin-like domains, residues F26-P394; Both Fc-tagged and tag-free forms were made; source: Expi293F, purified (protein A resin; tag-free form by on-resin thrombin digestion; Superdex 200)
T1 sequence (looked up): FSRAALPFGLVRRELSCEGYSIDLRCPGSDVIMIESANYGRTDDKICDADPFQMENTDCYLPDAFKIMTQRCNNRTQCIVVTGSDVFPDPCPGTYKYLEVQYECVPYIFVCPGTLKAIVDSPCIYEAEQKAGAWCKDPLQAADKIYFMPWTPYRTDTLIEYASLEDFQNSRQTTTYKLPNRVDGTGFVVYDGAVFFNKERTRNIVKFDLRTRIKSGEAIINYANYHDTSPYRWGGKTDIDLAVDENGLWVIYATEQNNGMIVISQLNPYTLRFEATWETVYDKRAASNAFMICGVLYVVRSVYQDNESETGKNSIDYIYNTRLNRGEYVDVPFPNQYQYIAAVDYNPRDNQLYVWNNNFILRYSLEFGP
Described as above. As to conditions: both partners purified.

B1: LPHN2 Olf domain (V135-P394) (domain or fragment, UniProt O95490 135-394, looked up)
chain: VCPGTLKAIVDSPCIYEAEQKAGAWCKDPLQAADKIYFMPWTPYRTDTLIEYASLEDFQNSRQTTTYKLPNRVDGTGFVVYDGAVFFNKERTRNIVKFDLRTRIKSGEAIINYANYHDTSPYRWGGKTDIDLAVDENGLWVIYATEQNNGMIVISQLNPYTLRFEATWETVYDKRAASNAFMICGVLYVVRSVYQDNESETGKNSIDYIYNTRLNRGEYVDVPFPNQYQYIAAVDYNPRDNQLYVWNNNFILRYSLEFGP
notes: LPHN2 (ADGRL2) olfactomedin-like domain, residues V135-P394; Both Fc-tagged and tag-free forms were made; also called olfactomedin-like domain; source: Expi293F, purified (protein A resin; tag-free form by on-resin thrombin digestion; Superdex 200)
In the case of B1, the Kd in assay [1] was 920 nM.

In the case of B2, the Kd in assay [2] came out at 890 nM.

One may read the Kd as a measure of binding affinity in units of concentration.
